Experiment [1] deals with G146V mutant Dictyostelium actin (Dictyostelium). Kind of experiment: pyrene fluorescence depolymerization assay; 2 μM Mg-actin (20% pyrene-labeled) polymerized overnight at 22°C with 100 mM KCl, 2 mM MgCl2, 0.5 mM ATP; depolymerization induced with 30 μM latrunculin A; double-exponential fit; filament to monomers.
For experiment [2] the target is unchanged. Kind of experiment: co-sedimentation; critical concentration by pelleting assay: 0.5-3.0 μM actin polymerized in F-buffer (10 mM HEPES pH 7.4, 2 mM MgCl2, 100 mM KCl, 0.5 mM ATP, 0.5 mM DTT) for 3 hr at 21°C, ultracentrifuged, protein in pellets determined; monomer to filament.
For experiment [3] the target is unchanged. The experiment in a line: pyrene fluorescence depolymerization assay; 2 μM Mg-actin (20% pyrene-labeled) polymerized for 12 min at 22°C with 100 mM KCl, 2 mM MgCl2, 0.5 mM ATP; depolymerization induced with 30 μM latrunculin A; double-exponential fit; filament to monomers.

For the substance “G146V mutant Dictyostelium actin (natural protein)”, in experiment [1], the τf (depolymerization, fast-depolymerization population) came out at 27.4 min and the τs (depolymerization, slow-depolymerization population) is 98 min. The substance also returned a critical concentration in experiment [2] of 0.51 µM. In experiment [3], the τf (depolymerization, fast-depolymerization population) stood at 20.1 min and the τs (depolymerization, slow-depolymerization population) was 169 min.

For the origin of these results see publication PMC4422724.
